These are literature values, as cited in PMC6109845.

pKd: −log10 of the molar value.

This data set has as its target HIF-1α 19-mer peptide (Homo sapiens) (UniProt Q16665).

Sequence of von Hippel-Lindau E3 ubiquitin ligase (VHL) (P40337 whole entry): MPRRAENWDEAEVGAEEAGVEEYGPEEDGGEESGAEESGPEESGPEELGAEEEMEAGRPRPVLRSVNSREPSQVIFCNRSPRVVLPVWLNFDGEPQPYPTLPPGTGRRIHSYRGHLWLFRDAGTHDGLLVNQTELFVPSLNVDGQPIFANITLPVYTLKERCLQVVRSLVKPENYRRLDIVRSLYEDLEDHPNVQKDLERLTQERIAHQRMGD

By pKd is commonly meant −log10 of the Kd, conventionally taken in molar units. For the substance “von Hippel-Lindau E3 ubiquitin ligase (VHL) (from UniProt P40337)”, the pKd was 8.52.
